Where no end group is shown, it is not given here. [ ]: non-standard residue; d: D form. The star is where a group is joined. Hexanoyl = CCCCCC(=O)*; Aib = CC(C)(N)C(=O)O
T1: rat PAC1 receptor (rat, UniProt P32215 20-523)
T1 sequence (looked up): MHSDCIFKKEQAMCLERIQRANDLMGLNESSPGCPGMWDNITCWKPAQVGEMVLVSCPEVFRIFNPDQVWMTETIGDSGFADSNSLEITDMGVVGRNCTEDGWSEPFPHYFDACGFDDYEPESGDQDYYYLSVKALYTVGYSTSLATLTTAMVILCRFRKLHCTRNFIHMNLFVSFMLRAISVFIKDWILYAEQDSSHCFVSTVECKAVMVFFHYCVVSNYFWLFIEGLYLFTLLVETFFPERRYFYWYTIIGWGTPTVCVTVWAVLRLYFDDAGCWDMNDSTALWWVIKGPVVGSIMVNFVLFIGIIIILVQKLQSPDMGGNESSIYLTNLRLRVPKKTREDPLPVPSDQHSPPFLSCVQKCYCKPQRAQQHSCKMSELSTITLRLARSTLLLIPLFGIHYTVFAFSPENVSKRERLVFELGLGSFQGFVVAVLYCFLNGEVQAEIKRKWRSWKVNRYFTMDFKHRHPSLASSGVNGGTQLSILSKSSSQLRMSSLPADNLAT

T2: human VPAC2 receptor (human, UniProt P41587 24-438)
T2 sequence (looked up): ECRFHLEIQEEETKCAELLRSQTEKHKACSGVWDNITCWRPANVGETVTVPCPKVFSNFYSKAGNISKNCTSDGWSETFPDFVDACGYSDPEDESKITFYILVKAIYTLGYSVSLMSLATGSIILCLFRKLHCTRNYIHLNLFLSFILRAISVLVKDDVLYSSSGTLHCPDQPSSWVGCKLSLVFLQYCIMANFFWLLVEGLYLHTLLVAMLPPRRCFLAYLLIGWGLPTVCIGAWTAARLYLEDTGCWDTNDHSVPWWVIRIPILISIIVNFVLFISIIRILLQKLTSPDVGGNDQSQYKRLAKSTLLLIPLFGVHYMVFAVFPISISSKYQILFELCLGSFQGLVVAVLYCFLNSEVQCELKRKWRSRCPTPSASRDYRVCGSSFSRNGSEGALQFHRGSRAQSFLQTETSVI

T3: rat VPAC1 receptor (rat, UniProt P30083 31-459)
T3 sequence (looked up): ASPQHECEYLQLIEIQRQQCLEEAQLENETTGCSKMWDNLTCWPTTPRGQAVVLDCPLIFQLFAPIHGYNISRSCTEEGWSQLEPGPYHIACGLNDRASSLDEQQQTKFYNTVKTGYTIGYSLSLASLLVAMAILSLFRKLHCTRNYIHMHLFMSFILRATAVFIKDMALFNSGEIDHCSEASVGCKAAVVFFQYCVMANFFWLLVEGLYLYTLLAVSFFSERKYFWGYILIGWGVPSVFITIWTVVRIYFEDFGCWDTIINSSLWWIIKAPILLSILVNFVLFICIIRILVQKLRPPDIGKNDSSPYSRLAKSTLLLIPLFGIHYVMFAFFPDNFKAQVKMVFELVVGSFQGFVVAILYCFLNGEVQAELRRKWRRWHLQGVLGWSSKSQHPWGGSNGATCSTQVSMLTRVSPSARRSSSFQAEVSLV

T4: rat VPAC2 receptor (rat, UniProt P35000 23-437)
T4 sequence (looked up): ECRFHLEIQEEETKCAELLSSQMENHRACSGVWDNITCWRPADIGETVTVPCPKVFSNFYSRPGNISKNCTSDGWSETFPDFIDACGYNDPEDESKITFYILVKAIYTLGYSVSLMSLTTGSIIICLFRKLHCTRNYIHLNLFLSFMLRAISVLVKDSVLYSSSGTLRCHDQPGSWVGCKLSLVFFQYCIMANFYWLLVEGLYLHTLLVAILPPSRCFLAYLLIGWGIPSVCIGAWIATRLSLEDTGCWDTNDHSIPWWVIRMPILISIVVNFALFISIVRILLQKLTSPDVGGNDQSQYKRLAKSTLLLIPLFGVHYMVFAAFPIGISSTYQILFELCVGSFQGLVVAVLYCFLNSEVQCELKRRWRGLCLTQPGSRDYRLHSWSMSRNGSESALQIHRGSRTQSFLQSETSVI

T5: human VPAC2 receptor (human), P41587
T5 chain: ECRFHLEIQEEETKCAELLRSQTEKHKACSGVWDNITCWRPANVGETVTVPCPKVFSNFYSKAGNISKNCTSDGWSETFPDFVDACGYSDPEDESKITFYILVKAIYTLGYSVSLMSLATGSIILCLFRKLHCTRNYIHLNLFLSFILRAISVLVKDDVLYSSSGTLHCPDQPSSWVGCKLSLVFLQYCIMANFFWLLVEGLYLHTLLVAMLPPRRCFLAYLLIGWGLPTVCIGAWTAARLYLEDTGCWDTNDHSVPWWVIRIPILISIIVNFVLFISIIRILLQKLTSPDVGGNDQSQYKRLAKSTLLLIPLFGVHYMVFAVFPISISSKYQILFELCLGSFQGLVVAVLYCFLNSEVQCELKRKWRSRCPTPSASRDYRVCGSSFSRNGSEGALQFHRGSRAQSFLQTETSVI

T6: human VPAC1 receptor (human, UniProt P32241 31-457)
T6 sequence (looked up): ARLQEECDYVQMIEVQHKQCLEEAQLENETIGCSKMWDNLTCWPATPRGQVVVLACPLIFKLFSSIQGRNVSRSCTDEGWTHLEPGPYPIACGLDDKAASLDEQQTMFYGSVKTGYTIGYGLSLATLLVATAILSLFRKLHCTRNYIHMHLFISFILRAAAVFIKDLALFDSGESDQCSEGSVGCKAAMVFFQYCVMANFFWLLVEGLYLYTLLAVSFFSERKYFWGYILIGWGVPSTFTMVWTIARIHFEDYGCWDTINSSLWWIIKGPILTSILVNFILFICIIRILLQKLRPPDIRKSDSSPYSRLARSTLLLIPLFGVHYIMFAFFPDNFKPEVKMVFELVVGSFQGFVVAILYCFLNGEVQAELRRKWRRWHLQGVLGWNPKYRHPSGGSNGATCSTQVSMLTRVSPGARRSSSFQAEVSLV

T7: human PAC1 receptor (human, UniProt P41586 21-468)
T7 sequence (looked up): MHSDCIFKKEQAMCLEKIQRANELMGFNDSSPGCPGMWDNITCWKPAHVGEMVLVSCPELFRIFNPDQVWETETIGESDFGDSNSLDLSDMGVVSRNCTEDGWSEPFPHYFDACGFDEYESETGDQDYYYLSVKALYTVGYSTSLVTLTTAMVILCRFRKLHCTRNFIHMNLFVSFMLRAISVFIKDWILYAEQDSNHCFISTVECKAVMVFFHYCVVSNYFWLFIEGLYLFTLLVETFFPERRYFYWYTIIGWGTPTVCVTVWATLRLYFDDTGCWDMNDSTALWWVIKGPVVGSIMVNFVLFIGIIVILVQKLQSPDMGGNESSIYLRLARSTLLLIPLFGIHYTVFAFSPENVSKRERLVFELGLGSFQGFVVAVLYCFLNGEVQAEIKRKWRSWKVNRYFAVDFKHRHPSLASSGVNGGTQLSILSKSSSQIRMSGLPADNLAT


Experiments:
[1] = target: T1, rat PAC1 receptor; assay: cell-based or functional assay
[2] = target: T2, human VPAC2 receptor; assay: cell-based or functional assay
[3] = target: T3, rat VPAC1 receptor; assay: cell-based or functional assay
[4] = target: T4, rat VPAC2 receptor; assay: cell-based or functional assay
[5] = target: T3, rat VPAC1 receptor; assay: cell-based or functional assay; remark: listed apart in the source
[6] = target: T4, rat VPAC2 receptor; assay: cell-based or functional assay; remark: listed apart in the source
[7] = target: T4, rat VPAC2 receptor; assay: IC50 on rat VPAC1 over IC50 on rat VPAC2
Source text: Each assay is done in duplicate and performed on two different membrane preparations.
TABLE 3 Binding data are expressed as the IC₅₀ values of tracer inhibition. A different reference compound is used as the tracer for the VPAC1 receptor and for the VPAC2 receptor. The last column represents the ratio between the IC₅₀ values on VPAC1 and VPAC2 receptor and is, thus, an index of selectivity for a receptor subtype. […] The values are given with the standard error.

[8] = target: T5, human VPAC2 receptor (human), P41587; assay: cell-based or functional assay
[9] = target: T6, human VPAC1 receptor; assay: cell-based or functional assay
[10] = target: T7, human PAC1 receptor; assay: cell-based or functional assay

Binder	adenylate cyclase potency ratio compared to PACAP-27 [1] [fold]	EC50 cAMP, Alpha Screen [2] [nM]	cAMP max [3]	VPAC1/VPAC2 (EC50 ratio) [4]	cAMP max [4]	EC50 cAMP, DiscoveRx [5] [nM]	EC50 cAMP, DiscoveRx [6] [nM]	VPAC1/VPAC2 (ratio of IC50 values) [7]	EC50 cAMP, Alpha Screen [8] [nM]	EC50 cAMP, DiscoveRx [2] [nM]	EC50 cAMP, DiscoveRx [9] [nM]	EC50 cAMP, DiscoveRx [10] [nM]
MHSDAVFTDNYTRLRKQVAAKKYLQSIKNKRYGGPSSGAPPPS (N-terminal methionine added (M-), also called VPAC2-P104) [P104]	> 1000	0.27	195	184	129	6.75	0.51	977	–	–	–	–
HSDAVFTDNYTRLRKQVAAKRYLQSIRNGGPSSGAPPPS (modifications not checked) [P213]	–	–	–	–	–	–	–	–	0.24	–	–	–
HSDAVFTDNYTRLRKQVAARRYLQSIRNGGPSSGAPPPS (modifications not checked) [P214]	–	–	–	–	–	–	–	–	0.16	–	–	–
Hexanoyl-HSDAVFTDNYTRLLAKLALQKYLQSIKNKRYGGPSSGAPPPS (also called VPAC2-P119) [P119]	> 200	0.42	207	32	133	0.07	–	47	–	0.34	–	–
Hexanoyl-HSDAVFTDNYTRLRKQVAAKKYLQSIKNKRYGGPSSGAPPPS (also called VPAC2-P31) [P31]	> 200	0.13	200	174	134	0.44	–	546	–	0.11	6	116
Hexanoyl-HSDAVFTDNYTRLR[Aib]QLAA[Aib]KYLQSIKNKGGPSSGAPPPS (ends and bridges not checked) [P292]	–	0.23	124	100	79.1	1.91	0.07	269	–	–	–	–

Source: patent US20080026996A1, “Selective Vpac2 Receptor Reptide Agonists” (ELI LILLY AND COMPANY, priority 2004, published 2008)
